Measured values as given in US20220041658A1 (PROTAGONIST THERAPEUTICS, published 2022).
Starred links: 1 amine or outer side, 2 acyl side, 3 side chain; linkers in the order of their positions; H or OH if unused. Positions of bridges follow the written chain, without caps; N, C: chain ends. Non-standard residues stand in square brackets, D forms with d. Trp(7-Et) = 7-ethyl-tryptophan, CCc1cccc2c(C[C@H](N[*:1])C(=O)[*:2])c[nH]c12; Trp(7-Me) = Cc1cccc2c(C[C@H](N)C(=O)O)c[nH]c12; 2Nal = N[C@@H](Cc1ccc2ccccc2c1)C(=O)O; AEF = NCCOc1ccc(C[C@H](N)C(=O)O)cc1; Cit = NC(=O)NCCC[C@H](N)C(=O)O; Pen = CC(C)(S)[C@H](N)C(=O)O; αMeK = C[C@](N)(CCCCN)C(=O)O; Aib = CC(C)(N)C(=O)O

Legend:
[1] = molecular target: T1, interleukin-23 receptor (IL-23R) (human, UniProt Q5VWK5 24-629); test: cell-based or functional assay
T1 sequence (looked up): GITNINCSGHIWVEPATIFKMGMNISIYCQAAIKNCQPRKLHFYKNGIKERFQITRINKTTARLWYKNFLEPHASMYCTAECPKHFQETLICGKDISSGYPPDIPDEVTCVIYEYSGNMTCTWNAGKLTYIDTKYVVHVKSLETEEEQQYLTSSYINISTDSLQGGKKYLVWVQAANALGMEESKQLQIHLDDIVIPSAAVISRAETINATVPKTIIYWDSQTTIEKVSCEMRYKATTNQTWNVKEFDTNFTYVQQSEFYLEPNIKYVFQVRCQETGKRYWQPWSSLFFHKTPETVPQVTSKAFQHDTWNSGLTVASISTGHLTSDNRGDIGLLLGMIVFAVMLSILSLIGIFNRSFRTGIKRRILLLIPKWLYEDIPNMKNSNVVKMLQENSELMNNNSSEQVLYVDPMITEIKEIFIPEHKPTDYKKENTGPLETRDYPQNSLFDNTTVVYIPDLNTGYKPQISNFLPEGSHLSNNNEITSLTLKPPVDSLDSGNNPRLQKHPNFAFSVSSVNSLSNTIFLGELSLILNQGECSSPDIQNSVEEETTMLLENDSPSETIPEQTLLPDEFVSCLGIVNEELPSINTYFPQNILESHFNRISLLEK

[2] = molecular target: T1, interleukin-23 receptor (IL-23R); test: cell-based or functional assay; remark: listed apart in the source

In the case of Ac-[Pen]NT[Trp(7-Me)]K(Ac)[Pen][2Nal][2Nal][αMeK]K(Ac)N[dL]-NH2 (disulfide 1-6 (inferred)) [Peptide of SEQ ID NO: 289], the “pStat3 HTRF IC50” value [1] is reported as 1.91 nM and the “NK Cell Assay IC50” value [2] is reported as 5.12 nM.

B1: Peptide of SEQ ID NO: 284 (peptide)
peptide: Ac-[Pen]NT[Trp(7-Et)]K(Ac)[Pen][AEF][2Nal][αMeK]K(Ac)N[dL]-NH2
modifications: disulfide 1-6
SMILES: CCc1cccc2c(C[C@@H]3NC(=O)[C@H]([C@@H](C)O)NC(=O)[C@H](CC(N)=O)NC(=O)[C@@H](NC(C)=O)C(C)(C)SSC(C)(C)[C@@H](C(=O)N[C@@H](Cc4ccc(OCCN)cc4)C(=O)N[C@@H](Cc4ccc5ccccc5c4)C(=O)N[C@@](C)(CCCCN)C(=O)N[C@@H](CCCCNC(C)=O)C(=O)N[C@@H](CC(N)=O)C(=O)N[C@H](CC(C)C)C(N)=O)NC(=O)[C@H](CCCCNC(C)=O)NC3=O)c[nH]c12
For B1, the “pStat3 HTRF IC50” value [1] was 0.34 nM and the “NK Cell Assay IC50” value [2] was 3.16 nM.

Ac-[Pen]NT[Trp(7-Me)]K(Ac)[Pen]H[2Nal][αMeK]K(Ac)N[dL]-NH2 (disulfide 1-6 (inferred)) [Peptide of SEQ ID NO: 290] was tested, and the “pStat3 HTRF IC50” value [1] was 2.45 nM and the “NK Cell Assay IC50” value [2] was 11 nM.

B2: Peptide of SEQ ID NO: 264 (peptide)
peptide: Ac-[Pen]NT[Trp(7-Me)][Cit][Pen][AEF][2Nal][αMeK]K(Ac)N[Aib]-NH2
modifications: disulfide 1-6
SMILES: CC(=O)NCCCC[C@H](NC(=O)[C@](C)(CCCCN)NC(=O)[C@H](Cc1ccc2ccccc2c1)NC(=O)[C@H](Cc1ccc(OCCN)cc1)NC(=O)[C@H]1NC(=O)[C@H](CCCNC(N)=O)NC(=O)[C@H](Cc2c[nH]c3c(C)cccc23)NC(=O)[C@H]([C@@H](C)O)NC(=O)[C@H](CC(N)=O)NC(=O)[C@@H](NC(C)=O)C(C)(C)SSC1(C)C)C(=O)N[C@@H](CC(N)=O)C(=O)NC(C)(C)C(N)=O
For B2, the “pStat3 HTRF IC50” value [1] was 0.596 nM and the “NK Cell Assay IC50” value [2] was 5.15 nM.
